Starred links: 1 amine or outer side, 2 acyl side, 3 side chain; linkers in the order of their positions; H or OH if unused. Positions of bridges follow the written chain, without caps; N, C: chain ends. Non-standard residues stand in square brackets, D forms with d. Groups on a side chain read outwards from the residue. No end group written: not given here. *: point of attachment. C20 diacid = O=C(O)CCCCCCCCCCCCCCCCCCC(=O)*; C18 diacid = O=C(O)CCCCCCCCCCCCCCCCC(=O)*; 17‑carboxyheptanoyl = not defined here; γGlu = O=C(O)[C@H](CCC(=O)[*:2])N[*:1]; AEEA = NCCOCCOCC(=O)O

This is an account of results in US20100222269A1 (Novo Nordisk, published 2010).

B1: N-alpha-(17-carboxyheptanoyl)-[Arg18]-pramlintide (1-37) (peptide)
peptide: {17‑carboxyheptanoyl}-KCNTATCATQRLANFLVRSSNNFGPILPPTNVGSNTY-NH2
modifications: disulfide 2-7 (inferred); reading uncertain; also: printed as N-alpha-(17-carboxyheptanoyl)-[Arg18]-pramlintide (1-37)
B2: N-alpha-(17-carboxyheptanoyl)-[Arg18,Leu23,Val26]-pramlintide (2-37) (peptide)
peptide: {17‑carboxyheptanoyl}-CNTATCATQRLANFLVRSSNNLGPVLPPTNVGSNTY-NH2
modifications: disulfide 1-6 (inferred); reading uncertain; also: printed as N-alpha-(17-carboxyheptanoyl)-[Arg18,Leu23,Val26]-pramlintide (2-37)
B3: N-alpha-[(S)-4-carboxy-4-(19-carboxynonadecanoylamino)butyryl]-Glu-Glu-Arg-[Glu1]-pramlintide (1-37) (peptide)
peptide: EERECNTATCATQRLANFLVHSSNNFGPILPPTNVGSNTY
modifications: N-alpha-[(S)-4-carboxy-4-(19-carboxynonadecanoylamino)butyryl] on the N-terminal Glu of the extension; disulfide bridge between the two Cys; C-terminal amide
B4: N-alpha-[(S)-4-carboxy-4-(17-carboxyheptadecanoylamino)butyryl]-[Arg18,Leu23,Val26]-pramlintide (2-37) (peptide)
peptide: CNTATCATQRLANFLVRSSNNLGPVLPPTNVGSNTY
modifications: N-alpha-[(S)-4-carboxy-4-(17-carboxyheptadecanoylamino)butyryl] on the N-terminal Cys2; disulfide bridge between the two Cys; C-terminal amide
B5: N-alpha-(2-{2-[2-(2-{2-[2-((S)-4-Carboxy-4-{4-carboxy-4-[4-carboxy-4-(17-carboxyheptadecanoylamino)butyrylamino]butyrylamino}butyrylamino) … (peptide)
peptide: CNTATCATQRLANFLVRSSNNLGPVLPPTNVGSNTY
modifications: N-alpha-(2-{2-[2-(2-{2-[2-((S)-4-Carboxy-4-{4-carboxy-4-[4-carboxy-4-(17-carboxyheptadecanoylamino)butyrylamino]butyrylamino}butyrylamino) ethoxy}ethoxy]acetylamino)ethoxy}ethoxy]acetyl) on the N-terminal Cys2; disulfide bridge between the two Cys; C-terminal amide
B6: N-alpha-(17-carboxyheptanoyl)-Glu-[Glu1]-pramlintide (1-37) (peptide)
peptide: {17‑carboxyheptanoyl}-EECNTATCATQRLANFLVHSSNNFGPILPPTNVGSNTY-NH2
modifications: disulfide 3-8 (inferred); reading uncertain; also: printed as N-alpha-(17-carboxyheptanoyl)-Glu-[Glu1]-pramlintide (1-37)

The experiment deals with Amylin 3(a) receptor (human calcitonin receptor (CTa) with RAMP-3) on BHK570 cells (human, UniProt P30988 25-474). Put plainly: cell-based or functional assay.
Chain of Amylin 3(a) receptor (human calcitonin receptor (CTa) with RAMP-3) on BHK570 cells (P30988 25-474): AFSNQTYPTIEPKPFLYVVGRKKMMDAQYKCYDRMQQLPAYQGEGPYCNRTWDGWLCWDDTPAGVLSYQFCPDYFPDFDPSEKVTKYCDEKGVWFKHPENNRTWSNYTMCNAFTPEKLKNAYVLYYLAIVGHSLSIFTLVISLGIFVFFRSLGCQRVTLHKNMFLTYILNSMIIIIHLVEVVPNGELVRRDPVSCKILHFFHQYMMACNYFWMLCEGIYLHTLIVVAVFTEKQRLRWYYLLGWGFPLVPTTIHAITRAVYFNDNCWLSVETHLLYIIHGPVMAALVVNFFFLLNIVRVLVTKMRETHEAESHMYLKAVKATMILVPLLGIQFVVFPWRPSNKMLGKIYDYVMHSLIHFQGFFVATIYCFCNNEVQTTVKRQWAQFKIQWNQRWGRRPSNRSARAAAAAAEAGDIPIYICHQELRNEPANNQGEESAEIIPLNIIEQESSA
Turning to KCNTATCATQRLANFLVHSSNNFGK([γGlu-C18 diacid])ILPPTNVGSNTY-NH2 (disulfide 2-7 (inferred)) [N-epsilon25-[(S)-4-carboxy-4-(17-carboxyheptadecanoylamino)butyryl]-[Lys25]-pramlintide (1-37)], the Potency luciferase assay is 0.09 nM.
Take B1: the Potency luciferase assay was 0.03 nM.
Consider KCK([AEEA-4‑(16-1H-tetrazol-5-yl-hexadecanoylsulfamoyl)butyryl])TATCATQRLANFLVHSSNNFGPILPPTNVGSNTY-NH2 (disulfide 2-7 (inferred)), for which the Potency luciferase assay came out at 0.1 nM.
KCNTATCATQRLANFLVHSSNNFGK([AEEA-AEEA-γGlu-γGlu-γGlu-γGlu-C18 diacid])ILPPTNVGSNTY-NH2 (disulfide 2-7 (inferred)): the Potency luciferase assay was 0.3 nM.
In the case of {C20 diacid-γGlu}-CNTATCATQRLANFLVHSSNNFGPILPPTNVGSNTY-NH2 (disulfide 1-6 (inferred)) [N-alpha-[(S)-4-carboxy-4-(19-carboxynonadecanoylamino)butyryl]-pramlintide (2-37)], the Potency luciferase assay came to 0.1 nM.
KCK(17‑carboxyheptanoyl)TATCATQRLANFLVRSSNNFGPILPPTNVGSNTY-NH2 (disulfide 2-7 (inferred)) [N-epsilon3-(17-carboxyheptanoyl)-[Lys3,Arg18]-pramlintide (1-37)]: the Potency luciferase assay was 0.06 nM.
Consider KCK([γGlu-C18 diacid])TATCATQRLANFLVRSSQNLGPVLPPTNVGSNTY-NH2 (disulfide 2-7 (inferred)), for which the Potency luciferase assay was found to be 0.04 nM.
Turning to {C20 diacid}-E[AEEA]ECQTATCATQRLANFLVRSSQNLGPVLPPTNVGSNTY-NH2 (disulfide 4-9 (inferred)), the Potency luciferase assay is 0.4 nM.
The value for ECK(17‑carboxyheptanoyl)TATCATQRLANFLVESSNNFGPILPPTNVGSNTY-NH2 (disulfide 2-7 (inferred)) [N-epsilon3-(17-carboxyheptanoyl)-[Glu1,Lys3,Glu18]-pramlintide (1-37)] was 0.03 nM.
For the molecule B2, the Potency luciferase assay stood at 0.1 nM.
For KCNTATCATQRLANFLVHSSNNFGPILPK(C20 diacid)TNVGSNTY-NH2 (disulfide 2-7 (inferred)) [N-epsilon29-(19-carboxynonadecanoyl)-[Lys29]-pramlintide (1-37)] the value was 5 nM.
Consider KCK(C20 diacid)TATCATQRLANFLVHSSNNFGPILPPTNVGSNTY-NH2 (disulfide 2-7 (inferred)) [N-epsilon3-(19-carboxynonadecanoyl)-[Lys3]-pramlintide (1-37)], for which the Potency luciferase assay stood at 0.05 nM.
With KCK(C18 diacid)TATCATQRLANFLVHSSNNFGPILPPTNVGSNTY-NH2 (disulfide 2-7 (inferred)) [N-epsilon3-(17-carboxyheptadecanoyl)-[Lys3]-pramlintide (1-37)], the Potency luciferase assay turned out to be 0.05 nM.
The value for {C20 diacid}-EER[AEEA]ECNTATCATQRLANFLVHSSNNFGPILPPTNVGSNTY-NH2 (disulfide 6-11 (inferred)) was 0.4 nM; that for {C20 diacid}-EERECQTATCATQRLANFLVRSSQNLGPVLPPTNVGSNTY-NH2 (disulfide 5-10 (inferred)) [N-alpha-(19-carboxynonadecanoyl)-Glu-Glu-Arg-[Glu1,Gln3,Arg18,Gln21,Leu23,Val26]-pramlintide (1-37)] was 0.09 nM.
In the case of EERECNTATCATQRLANFLVHSSNNFGPILPPTNVGSNTY-NH2 (disulfide 5-10 (inferred); not fully specified (N-terminus)), the Potency luciferase assay turned out to be 2 nM.
As for B3, the Potency luciferase assay was found to be 0.3 nM.
Turning to {C20 diacid}-EERECNTATCATQRLANFLVHSSNNFGPILPPTNVGSNTY-NH2 (disulfide 5-10 (inferred)) [N-alpha-(19-carboxynonadecanoyl)-Glu-Glu-Arg-[Glu1]-pramlintide (1-37)], the Potency luciferase assay stood at 0.08 nM.
For the molecule KCK([AEEA-Glu-Glu-C20 diacid])TATCATQRLANFLVRSSQNLGPVLPPTNVGSNTY-NH2 (disulfide 2-7 (inferred)), the Potency luciferase assay came to 0.3 nM.
For B4, the Potency luciferase assay was determined as 0.03 nM.
The value for B5 was 0.9 nM; that for K([γGlu-C18 diacid])CGTATCATQRLANFLARSSNNFGPILSPTNVGSNTY-NH2 (disulfide 2-7 (inferred)) was 0.07 nM.
As to {C20 diacid}-ERCNTATCATQRLANFLVHSSNNFGPILPPTNVGSNTY-NH2 (disulfide 3-8 (inferred)) [N-alpha-(19-carboxynonadecanoyl)-Glu-[Arg1]-pramlintide (1-37)], the Potency luciferase assay is 0.1 nM.
Regarding KCK([AEEA-AEEA-γGlu-γGlu-γGlu-C18 diacid])TATCATQRLANFLVPSSNNFGPILPPTNVGSNTY-NH2 (disulfide 2-7 (inferred)), the Potency luciferase assay stood at 20 nM.
For B6, the Potency luciferase assay was found to be 0.4 nM.
As for {C20 diacid}-EEEECQTATCATQRLANFLVRSSQNLGPVLPPTNVGSNTY-NH2 (disulfide 5-10 (inferred)) [N-alpha-(19-carboxynonadecanoyl)-Glu-Glu-Glu-[Glu1,Gln3,Arg18,Gln21,Leu23,Val26]-pramlintide (1-37)], the Potency luciferase assay was 2 nM.
Regarding KCK([AEEA-AEEA-γGlu-C20 diacid])TATCATQRLANFLVHSSNNFGPILPPTNVGSNTY-NH2 (disulfide 2-7 (inferred)), the Potency luciferase assay was 0.3 nM.
For KCK([AEEA-AEEA-C18 diacid])TATCATQRLANFLVHSSNNFGPILPPTNVGSNTY-NH2 (disulfide 2-7 (inferred)) the value was 0.1 nM.
KCK([γGlu-C18 diacid])TATCATQRLANFLVPSSNNFGPILPPTNVGSNTY-NH2 (disulfide 2-7 (inferred)) [N-epsilon3-[(S)-4-carboxy-4-(17-carboxyheptadecanoylamino)butyryl]-[Lys3,Pro18]-pramlintide (1-37)]: the Potency luciferase assay was 0.7 nM.
{C18 diacid}-EERECNTATCATQRLANFLVHSSNNFGPILPPTNVGSNTY-NH2 (disulfide 5-10 (inferred)) [N-alpha-(17-carboxyheptadecanoyl)-Glu-Glu-Arg-[Glu1]pramlintide (1-37)]: the Potency luciferase assay was determined as 0.06 nM.
For {C20 diacid-γGlu}-KKCNTATCATQRLANFLVHSSNNFGPILPPTNVGSNTY-NH2 (disulfide 3-8 (inferred)) [N-alpha-[(S)-4-carboxy-4-(19-carboxynonadecanoylamino)butyryl]-Lys-pramlintide (1-37)] the value was 0.1 nM; for KCK([AEEA-AEEA-γGlu-C18 diacid])TATCATQRLANFLVPSSNNFGPILPPTNVGSNTY-NH2 (disulfide 2-7 (inferred)), 10 nM; for {C20 diacid-γGlu}-RRCNTATCATQRLANFLVHSSNNFGPILPPTNVGSNTY-NH2 (disulfide 3-8 (inferred)) [N-alpha-[(S)-4-carboxy-4-(19-carboxynonadecanoylamino)butyryl]-Arg-[Arg1]-pramlintide (1-37)], 0.1 nM.
Turning to CK([γGlu-4‑(16-1H-tetrazol-5-ylhexadecanoylsulfamoyl)butyryl])TATCATQRLANFLVHSSNNFGPILPPTNVGSNTY-NH2 (disulfide 1-6 (inferred)), the Potency luciferase assay was found to be 0.04 nM.
With {C20 diacid-γGlu}-RCNTATCATQRLANFLVHSSNNFGPILPPTNVGSNTY-NH2 (disulfide 2-7 (inferred)) [N-alpha-[(S)-4-carboxy-4-(19-carboxynonadecanoylamino)butyryl]-[Arg1]-pramlintide (1-37)], the Potency luciferase assay was determined as 0.04 nM.
Turning to KCK([Glu-Glu-Glu-Glu-C20 diacid])TATCATQRLANFLVRSSQNLGPVLPPTNVGSNTY-NH2 (disulfide 2-7 (inferred)), the Potency luciferase assay is 0.6 nM.
With EERECNTATCATQRLANFLVHSSNNFGPILPPTNVGSNTY-NH2 (disulfide 5-10 (inferred); not fully specified (N-terminus)) [N-alpha-[4-(16-1H-tetrazol-5-yl-hexadecanoylsulfamoyl)-butyryl]-Glu-Glu-Arg-[Glu1]pramlintide (1-37)], the Potency luciferase assay was determined as 0.09 nM.
